Measured values: US20090239794A1, “HCV F PROTEIN AND USES THEREOF” (priority 2004, published 2009)

Tests used:
[1] = molecular target: Fmut8Δ11 protein (recombinant ARFP, truncated HCV-1a F protein lacking the first 11 N-terminal amino acids) (HCV-1a) (UniProt P0C045); assay: ELISA, serum 1/50, day 14
[2] = molecular target: Fmut8Δ11 protein (recombinant ARFP, truncated HCV-1a F protein lacking the first 11 N-terminal amino acids) (HCV-1a) (UniProt P0C045); assay: ELISA, serum 1/50, day 29
[3] = molecular target: Fmut8Δ11 protein (recombinant ARFP, truncated HCV-1a F protein lacking the first 11 N-terminal amino acids) (HCV-1a) (UniProt P0C045); assay: ELISA, serum 1/50, day 52
[4] = molecular target: Fmut8Δ11 protein (recombinant ARFP, truncated HCV-1a F protein lacking the first 11 N-terminal amino acids) (HCV-1a) (UniProt P0C045); assay: ELISA, serum 1/100, day 14
[5] = molecular target: Fmut8Δ11 protein (recombinant ARFP, truncated HCV-1a F protein lacking the first 11 N-terminal amino acids) (HCV-1a) (UniProt P0C045); assay: ELISA, serum 1/100, day 29
[6] = molecular target: Fmut8Δ11 protein (recombinant ARFP, truncated HCV-1a F protein lacking the first 11 N-terminal amino acids) (HCV-1a) (UniProt P0C045); assay: ELISA, serum 1/100, day 52
[7] = molecular target: Fmut8Δ11 protein (recombinant ARFP, truncated HCV-1a F protein lacking the first 11 N-terminal amino acids) (HCV-1a) (UniProt P0C045); assay: ELISA, serum 1/200, day 14
[8] = molecular target: Fmut8Δ11 protein (recombinant ARFP, truncated HCV-1a F protein lacking the first 11 N-terminal amino acids) (HCV-1a) (UniProt P0C045); assay: ELISA, serum 1/200, day 29
[9] = molecular target: Fmut8Δ11 protein (recombinant ARFP, truncated HCV-1a F protein lacking the first 11 N-terminal amino acids) (HCV-1a) (UniProt P0C045); assay: ELISA, serum 1/200, day 52
[10] = molecular target: Fmut8Δ11 protein (recombinant ARFP, truncated HCV-1a F protein lacking the first 11 N-terminal amino acids) (HCV-1a) (UniProt P0C045); assay: ELISA, serum 1/400, day 14
[11] = molecular target: Fmut8Δ11 protein (recombinant ARFP, truncated HCV-1a F protein lacking the first 11 N-terminal amino acids) (HCV-1a) (UniProt P0C045); assay: ELISA, serum 1/400, day 29
[12] = molecular target: Fmut8Δ11 protein (recombinant ARFP, truncated HCV-1a F protein lacking the first 11 N-terminal amino acids) (HCV-1a) (UniProt P0C045); assay: ELISA, serum 1/400, day 52
[13] = molecular target: Fmut8Δ11 protein (recombinant ARFP, truncated HCV-1a F protein lacking the first 11 N-terminal amino acids) (HCV-1a) (UniProt P0C045); assay: ELISA, serum 1/800, day 14
[14] = molecular target: Fmut8Δ11 protein (recombinant ARFP, truncated HCV-1a F protein lacking the first 11 N-terminal amino acids) (HCV-1a) (UniProt P0C045); assay: ELISA, serum 1/800, day 29
[15] = molecular target: Fmut8Δ11 protein (recombinant ARFP, truncated HCV-1a F protein lacking the first 11 N-terminal amino acids) (HCV-1a) (UniProt P0C045); assay: ELISA, serum 1/800, day 52
[16] = molecular target: Fmut8Δ11 protein (recombinant ARFP, truncated HCV-1a F protein lacking the first 11 N-terminal amino acids) (HCV-1a) (UniProt P0C045); assay: ELISA, serum 1/1600, day 14
[17] = molecular target: Fmut8Δ11 protein (recombinant ARFP, truncated HCV-1a F protein lacking the first 11 N-terminal amino acids) (HCV-1a) (UniProt P0C045); assay: ELISA, serum 1/1600, day 29
[18] = molecular target: Fmut8Δ11 protein (recombinant ARFP, truncated HCV-1a F protein lacking the first 11 N-terminal amino acids) (HCV-1a) (UniProt P0C045); assay: ELISA, serum 1/1600, day 52

Work on “serum of mouse 18, protocol 2, mock immunization (PBS) (antibody)” yielded an OD410 [1] of 0.228, an OD410 [2] of 0.356 and an OD410 [3] of 0.279. For the same substance, the OD410 [4] was 0.162, the OD410 [5] was 0.217 and the OD410 [6] was 0.161. It also gave an OD410 [7] of 0.136, an OD410 [8] of 0.166 and an OD410 [9] of 0.135. For the same substance, the OD410 [10] was 0.127, the OD410 [11] was 0.134 and the OD410 [12] was 0.12. For the same substance, the OD410 [13] was 0.126, the OD410 [14] was 0.126 and the OD410 [15] was 0.114. For the same substance, the OD410 [16] was 0.122, the OD410 [17] was 0.119 and the OD410 [18] was 0.134.
“serum of mouse 19, protocol 2, mock immunization (PBS) (antibody)” gave an OD410 [1] of 0.23, an OD410 [2] of 0.444 and an OD410 [3] of 0.313. It also gave an OD410 [4] of 0.18, an OD410 [5] of 0.27 and an OD410 [6] of 0.175. The OD410 [7] was 0.144, the OD410 [8] was 0.184 and the OD410 [9] was 0.143. It also gave an OD410 [10] of 0.142, an OD410 [11] of 0.54 and an OD410 [12] of 0.135. It also gave an OD410 [13] of 0.13, an OD410 [14] of 0.139 and an OD410 [15] of 0.12. It also gave an OD410 [16] of 0.129, an OD410 [17] of 0.119 and an OD410 [18] of 0.126.
For “serum of mouse 20, protocol 2, mock immunization (PBS) (antibody)”, the OD410 [1] was 0.245, the OD410 [2] was 0.51 and the OD410 [3] was 0.247. The OD410 [4] was 0.168, the OD410 [5] was 0.181 and the OD410 [6] was 0.182. For the same substance, the OD410 [7] was 0.138, the OD410 [8] was 0.154 and the OD410 [9] was 0.146. The OD410 [10] was 0.121, the OD410 [11] was 0.133 and the OD410 [12] was 0.141. It also gave an OD410 [13] of 0.136, an OD410 [14] of 0.13 and an OD410 [15] of 0.127. For the same substance, the OD410 [16] was 0.118, the OD410 [17] was 0.141 and the OD410 [18] was 0.127.
In the case of “serum of mouse 26, protocol 2, mock immunization (PBS) (antibody)”, the OD410 [1] is reported as 0.281, the OD410 [2] is reported as 0.416 and the OD410 [3] is reported as 0.203. For the same substance, the OD410 [4] was 0.193, the OD410 [5] was 0.178 and the OD410 [6] was 0.146. For the same substance, the OD410 [7] was 0.146, the OD410 [8] was 0.154 and the OD410 [9] was 0.123. It also gave an OD410 [10] of 0.133, an OD410 [11] of 0.144 and an OD410 [12] of 0.12. It also gave an OD410 [13] of 0.133, an OD410 [14] of 0.144 and an OD410 [15] of 0.114. For the same substance, the OD410 [16] was 0.126, the OD410 [17] was 0.137 and the OD410 [18] was 0.118.
“serum of mouse 27, protocol 2, mock immunization (PBS) (antibody)” gave an OD410 [1] of 0.216, an OD410 [2] of 0.324 and an OD410 [3] of 0.201. The OD410 [4] was 0.146, the OD410 [5] was 0.175 and the OD410 [6] was 0.155. The OD410 [7] was 0.113, the OD410 [8] was 0.14 and the OD410 [9] was 0.136. The OD410 [10] was 0.115, the OD410 [11] was 0.13 and the OD410 [12] was 0.12. The OD410 [13] was 0.113, the OD410 [14] was 0.124 and the OD410 [15] was 0.115. The OD410 [16] was 0.112, the OD410 [17] was 0.129 and the OD410 [18] was 0.116.
Substance “serum of mouse 28, protocol 2, mock immunization (PBS) (antibody)” has an OD410 [1] of 0.261, an OD410 [2] of 0.354 and an OD410 [3] of 0.165. For the same substance, the OD410 [4] was 0.179, the OD410 [5] was 0.204 and the OD410 [6] was 0.141. For the same substance, the OD410 [7] was 0.146, the OD410 [8] was 0.167 and the OD410 [9] was 0.117. The OD410 [10] was 0.133, the OD410 [11] was 0.143 and the OD410 [12] was 0.119. The OD410 [13] was 0.122, the OD410 [14] was 0.128 and the OD410 [15] was 0.107. The OD410 [16] was 0.114, the OD410 [17] was 0.128 and the OD410 [18] was 0.123.
“serum of mouse 30, protocol 2, mock immunization (PBS) (antibody)” was tested, and the OD410 [2] was 0.381, the OD410 [3] was 0.226 and the OD410 [5] was 0.224. It also gave an OD410 [6] of 0.148, an OD410 [8] of 0.157 and an OD410 [9] of 0.128. For the same substance, the OD410 [11] was 0.132, the OD410 [12] was 0.119 and the OD410 [14] was 0.126. It also gave an OD410 [15] of 0.113, an OD410 [17] of 0.129 and an OD410 [18] of 0.119.
